Common to all, as to format: biochemical
Series [1] is described as follows: Enzyme activity assay (hydrogen peroxide, POD-4-AA colour at 510 nm), fructosyl valyl histidine substrate. As to conditions: for Substrate specificity (% relative activity) FVH / Activity per medium: crude enzyme sample; for action on fructosyl valyl histidine and ε-fructosyl lysine (in words): crude enzyme samples of Tables 1 and 2. From the text:
Enzyme activities of the oxidase of the invention and the oxidase of the invention that have less action on ε-fructosyl lysine (hereinafter, the term “the oxidases of the invention” may comprise both the oxidase of the invention and the oxidase of the invention that have less action on ε-fructosyl lysine) may principally be determined by determining the amount of α-ketoaldehyde, peptide, hydrogen peroxide or the like which are produced through enzyme reaction or by determining the amount of oxygen consumed by the enzyme reaction. Hereinafter, a method for determining the amount of hydrogen peroxide will be described as one example. Unless otherwise noted, fructosyl valyl histidine is used as a substrate for determining the activities of the oxidases of the invention. Titer of the enzyme is defined such that an amount of enzyme for producing 1 μmol hydrogen peroxide per minute is 1U as determined using a fructosyl valyl histidine substrate. 1.0 kU of peroxidase (Toyobo Co., Ltd, TYPE III) and 100 mg of 4-aminoantipyrine (Tokyo Kasei Kogyo Co., Ltd.) are dissolved in 0.1 M potassium phosphate buffer (pH 8.0) to a constant volume of 1L. 25 ml of a commercially available 2% solution (available from Nacalai Tesque, Inc.) is dissolved in ion exchange water to a constant volume of 100 ml. 624 mg of fructosyl valyl histidine is dissolved in ion exchange water to a constant volume of 10 ml. Alternatively, fructosyl glycine or ε-fructosyl lysine of 357 mg or 462 mg, respectively, may be dissolved in ion exchange water to a constant volume of 10 ml to be used as a substrate. Fructosyl valine histidine was prepared as described in Japanese Patent Application Laid-Open (kohyo) No. 2001-95598. Fructosyl glycine and ε-fructosyl lysine were prepared according to a method of Horiuchi et al. (Agric. Biol. Chem., 53, 103-110, 1989; Agric. Biol. Chem., 55, 333-338, 1991). 2.7 ml of Reagent 1, 100 μl of Reagent 2 and 100 μl of enzyme solution are mixed and pre-heated at 30° C. for 5 minutes. Then, 100 μl of Reagent 3 is added and thoroughly mixed to determine absorbance at 510 nm using a spectrophotometer (U-[…], Hitachi, Ltd.). Measurement values indicate changes in the absorbance per minute at 510 nm after 1 to 3 minutes. A control solution was prepared in the same manner as described above except 100 μl ion exchange water was added instead of 100 μl Reagent 3. A standard solution of hydrogen peroxide and ion exchange water were used instead of Reagent 3 and the enzyme solution, respectively, to prepare a graph showing relationship with respect to the level of color. Referring to this graph, micromole of hydrogen peroxide produced per minute at 30° C. is calculated and used as the unit for expressing the activity of the enzyme solution. The presence of action on ε-fructosyl lysine can be determined in the same manner by using Reagent 3 (substrate solution) containing ε-fructosyl lysine substrate instead of fructosyl valyl histidine substrate.

Series [2] is described as follows: Reaction with products obtained by digesting α-glycated hexapeptide with protease (96-well plate, 510 nm). The settings on record: purified enzyme; compared to 100% activity for fructosyl glycine; monitored at 510 nm for 70 minutes. From the text: Glycated hemoglobin (HbA1c) may be treated with endoproteinase Glu-C to liberate α-glycated hexapeptide (fructosyl Val-His-Leu-Thr-Pro-Glu) from the glycated hemoglobin β-chain (Clin. Chem., 43; 10 1944-1951, 1997). Fructosyl Val-His-Leu-Thr-Pro-Glu (available from PEPTIDE INSTITUTE, INC), which is the same substance as the α-glycated hexapeptide, was used in the following experiment.
α-glycated hexapeptide (fructosyl Val-His-Leu-Thr-Pro-Glu, MW=856, available from PEPTIDE INSTITUTE, INC) (3.434 mg) was dissolved in 0.2 ml of water.
Molsin (15 mg, available from Kikkoman Corp.) was dissolved in 0.2 ml of buffer (10 mM acetate buffer, pH 3.0)
A (100 μl), B (5 μl) and C (5 μl) were mixed in a microtube and incubated at 37° C. for 17 hours. The reaction solution was then filtered using Microcon 10 (available from Amicon) to remove protease.
Developer solution consisted of the following materials:
• (a) Enzyme purified from Achaetomiella virescens ATCC 32393 • (b) Enzyme purified from Eupenicillium terrenum ATCC 18547 • (c) Enzyme purified from Coniochaeta sp. […]
Reaction substrate (D: a, b) (20 μl), developer solution (E) (20 μl) and the inventive oxidase (F: a-d) (10 μl) were mixed in 96-well assay plates for reaction. Each plate was monitored at 510 nm using a plate reader (Immuno Mini NJ-2300, available from Nalge Nunc International K. K.) for 70 minutes. […]

Series [3] can be described thus: Optimum temperature range of the enzyme reaction. As to conditions: purified oxidase. As for the experimental part: For example, a reaction solution having the same composition as that of a reaction solution used for the activity assay described later is used to determine activities of the enzyme at various temperatures, thereby determining a suitable temperature range for action. The oxidases of the invention may, for example, have a suitable temperature range of 20-50° C., preferably 25-45° C. For example, a reaction solution having the same composition as that of a reaction solution for the activity assay described later is used to determine activities of the enzyme at various temperatures, thereby determining a suitable temperature range. The oxidases of the invention that have less action on ε-fructosyl lysine may, for example, have a suitable temperature range of 20-50° C., preferably 25-40° C. The activity of the inventive oxidase was assayed at different temperatures using reactions which consisted of the same compositions as those used in the above-described activity assay.

Setting [4] is: relative to activity for ε-fructosyl lysine (100%).
Where [5] appears, read: strain cultured on enzyme inducible medium 1 at 30° C. for 4 days, Tables 1 and 2.

B1: Coniochaeta sp. NISL 9330: fructosyl peptide oxidase produced by Coniochaeta sp. NISL 9330 (FERM BP-7798) with less action on ε-fructosyl lysine; amino acid sequence SEQ ID NO: 1 (protein, listed as Coniochaeta sp.)
chain: MTSNRADTRVIVVGGGGTIGSSTALHLVRSGYAPANITVLDTFEIPSAQSAGHDLNKIMGIRLRNKVDLQMSLEARQMWKEDELFQPFFHNTGRMDCEHTPEGIEDLKKQYQALHDAGAGLEKTHAWLDNEDEILSKMPLLQRDQIQGWKAIWSQDGGWLAAAKAINAIGQFLKERGVKFGFGGAGSFKQPLFDDEGTTCIGVETADGTKYYADKVVLAAGAWSPTLVDLEDQCCSKAWVYAHIQLTPEEAAEYKGVPVVYNGEFGFFFEPNEFGVIKVCDEFPGFSRFKEHQPYGAPSPKHISVPRSHAKHPTDTYPDASEVSIKKAIATFLPRFQDKELFNRALCWCTDTADAALLMCEHPKWKNFILATGDSGHSFKILPNVGKHVVELIEGRLPEEMAYQWRWRPGGDALKSRRAAPPKDLADMPGWKHDPKL
Turning to B1, the “Substrate specificity (% relative activity) FVH” value in series [1] (setting [4]) is 165%. Besides, in series [1] (setting [5]), the Activity per medium amounted to 70.1 U/L. The “action on fructosyl valyl histidine and ε-fructosyl lysine (in words)” value in series [1] was “acted well on fructosyl valyl histidine but less on ε-fructosyl lysine”. Further, in series [2], the “% relative activity on protease-digested α-glycated hexapeptide” value turned out to be 10.0%. The “temperature of maximum activity (100%)” value in series [3] was “around 40 °C”.

B2: Eupenicillium terrenum ATCC 18547: fructosyl peptide oxidase produced by Eupenicillium terrenum ATCC 18547 with less action on ε-fructosyl lysine; amino acid sequence SEQ ID NO: 3 (protein, listed as Eupenicillium terrenum)
chain: MAHSRASTKVVVVGGGGTIGSSTALHLIRSGYTPSNITVLDVYKTPSLQSAGHDLNKIMGIRLRNGPDLQLSLESLDMWQNDELFKPFFHQVGMIDCSSSKEGIENLRRKYQTLLDAGIGLEKTNVWLESEDEILAKAPNFTREQVKGWKGLFCTDGGWLAAAKAINAIGIFLQDKGVKFGFGGAGTFQQPLFAADGKTCIGLETTDGTKYFADKVVLAAGAWSPTLVDLEDQCVSKAWVFAHIQLTPKEADAYKNVPVVYDGEYGFFFEPNEYGVIKVCDEFPGFSRFKLHQPYGAASPKMISVPRSHAKHPTDTYPDASEVTIRKAIARFLPEFKDKELFNRTMCWCTDTADANLLICEHPKWKNFILATGDSGHSFKLLPNIGKHVVELLEGSLSQEMAGAWRWRPGGDALRSRRGAPAKDLAEMPGWKHDAHL
Consider B2, for which the Activity per medium is 2.8 U/L in series [1] (Eupenicillium strains on enzyme induction media 1 at 30° C. for 4 days, Table 3) and 2.8 U/L in series [1] (setting [5]). The entries for the “Substrate specificity (% relative activity) FVH” value in series [1] (reference substrate set to 100%) and in series [1] (setting [4]) were 100% and 1023%, respectively. Also, in series [1], the “action on fructosyl valyl histidine and ε-fructosyl lysine (in words)” value is recorded as “acted well on fructosyl valyl histidine but less on ε-fructosyl lysine”. Besides, in series [2], the “% relative activity on protease-digested α-glycated hexapeptide” value was found to be 9.5%. The “temperature of maximum activity (100%)” value in series [3] is “around 35 °C”. The optimum temperature range in series [3] (relative activities of 50% or 60% or higher) was 25-40 °C.

The values above are taken from patent US7419813B2, “Fructosyl peptide oxidase” (Kikkoman Corporation, priority 2001, dated 2008).
